Substitutions are numbered along the chain they refer to. Numbers in names are those of the source.
B1: B8_BP_dslf M13L; Y16I (protein)
chain: TKCVVRFNFRGDLAVIALKAVKDHLKKEGPHWNITTHNDDEVYLVVRGIHESDAKRIAKWVESTIPGISVETQCD
B2: B8_BP_dslf M13L; V15T; Y16I (protein)
chain: B1 chain with V15T
B3: B8_BP_dslf Y16I (protein)
chain: B1 chain with L13M
B4: B8_BP_dslf V15T; Y16I (protein)
chain: B1 chain with L13M, V15T

Columns and labels:
[1] = target: T1, human integrin αvβ6 (soluble, construct not stated), P06756;P18564; assay: BLI; conditions: chain shown with the change;; parent: > 1000 nM
T1 chain 1: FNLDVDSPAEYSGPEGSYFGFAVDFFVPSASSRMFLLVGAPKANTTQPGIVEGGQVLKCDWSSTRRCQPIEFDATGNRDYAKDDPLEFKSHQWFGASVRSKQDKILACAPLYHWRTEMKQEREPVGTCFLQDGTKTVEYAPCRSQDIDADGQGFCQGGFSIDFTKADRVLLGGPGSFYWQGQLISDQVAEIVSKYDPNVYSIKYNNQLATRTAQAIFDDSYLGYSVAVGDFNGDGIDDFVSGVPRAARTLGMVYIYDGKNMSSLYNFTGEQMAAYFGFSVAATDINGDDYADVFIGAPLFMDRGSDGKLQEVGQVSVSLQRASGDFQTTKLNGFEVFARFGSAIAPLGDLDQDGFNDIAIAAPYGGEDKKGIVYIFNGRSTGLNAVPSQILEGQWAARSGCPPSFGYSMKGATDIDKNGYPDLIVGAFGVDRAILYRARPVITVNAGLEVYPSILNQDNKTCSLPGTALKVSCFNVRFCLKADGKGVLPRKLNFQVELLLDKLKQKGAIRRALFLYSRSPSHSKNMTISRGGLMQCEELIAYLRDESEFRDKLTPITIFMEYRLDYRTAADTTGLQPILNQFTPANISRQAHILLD
T1 chain 2: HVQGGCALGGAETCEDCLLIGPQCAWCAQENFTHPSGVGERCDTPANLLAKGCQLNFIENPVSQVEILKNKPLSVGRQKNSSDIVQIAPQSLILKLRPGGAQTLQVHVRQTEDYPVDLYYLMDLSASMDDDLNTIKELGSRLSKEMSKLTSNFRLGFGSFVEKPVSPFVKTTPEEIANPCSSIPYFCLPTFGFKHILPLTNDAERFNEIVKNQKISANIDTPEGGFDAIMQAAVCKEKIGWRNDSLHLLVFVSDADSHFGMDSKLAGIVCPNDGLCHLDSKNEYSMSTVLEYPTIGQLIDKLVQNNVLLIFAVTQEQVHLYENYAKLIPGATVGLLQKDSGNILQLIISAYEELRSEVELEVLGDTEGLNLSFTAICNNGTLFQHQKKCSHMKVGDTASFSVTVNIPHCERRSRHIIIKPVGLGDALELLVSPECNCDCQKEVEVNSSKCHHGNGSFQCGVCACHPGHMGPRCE

[2] = target: T2, human integrin αvβ8 (soluble, construct not stated), P06756;P26012; assay: BLI; conditions: chain shown with the change;; parent: 1.9 nM
T2 chain 1: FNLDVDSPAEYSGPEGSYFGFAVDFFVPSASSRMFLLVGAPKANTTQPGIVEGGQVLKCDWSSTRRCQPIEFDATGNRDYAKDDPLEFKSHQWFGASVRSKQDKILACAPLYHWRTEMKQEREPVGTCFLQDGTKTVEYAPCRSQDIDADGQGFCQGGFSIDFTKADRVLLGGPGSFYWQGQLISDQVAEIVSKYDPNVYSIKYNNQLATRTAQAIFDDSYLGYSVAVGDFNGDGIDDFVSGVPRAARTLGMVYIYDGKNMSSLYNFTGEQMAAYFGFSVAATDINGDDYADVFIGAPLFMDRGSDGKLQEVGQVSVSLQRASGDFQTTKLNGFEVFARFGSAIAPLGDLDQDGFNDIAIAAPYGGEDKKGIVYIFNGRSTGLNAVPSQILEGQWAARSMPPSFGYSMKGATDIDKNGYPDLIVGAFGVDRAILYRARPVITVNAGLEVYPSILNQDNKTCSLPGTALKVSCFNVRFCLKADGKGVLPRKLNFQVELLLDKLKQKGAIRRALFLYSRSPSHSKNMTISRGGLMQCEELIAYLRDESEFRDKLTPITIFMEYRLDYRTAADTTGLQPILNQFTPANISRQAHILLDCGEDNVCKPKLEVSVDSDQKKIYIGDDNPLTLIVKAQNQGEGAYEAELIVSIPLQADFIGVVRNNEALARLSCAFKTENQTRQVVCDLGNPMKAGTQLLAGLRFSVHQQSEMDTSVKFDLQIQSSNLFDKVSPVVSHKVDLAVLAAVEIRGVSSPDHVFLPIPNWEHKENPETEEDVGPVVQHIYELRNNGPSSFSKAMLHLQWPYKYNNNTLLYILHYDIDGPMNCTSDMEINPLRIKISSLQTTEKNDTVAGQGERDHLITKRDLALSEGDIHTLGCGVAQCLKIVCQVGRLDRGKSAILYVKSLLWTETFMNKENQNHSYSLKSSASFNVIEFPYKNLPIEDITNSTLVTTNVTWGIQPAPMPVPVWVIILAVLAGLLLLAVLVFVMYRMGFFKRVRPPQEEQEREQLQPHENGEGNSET
T2 chain 2: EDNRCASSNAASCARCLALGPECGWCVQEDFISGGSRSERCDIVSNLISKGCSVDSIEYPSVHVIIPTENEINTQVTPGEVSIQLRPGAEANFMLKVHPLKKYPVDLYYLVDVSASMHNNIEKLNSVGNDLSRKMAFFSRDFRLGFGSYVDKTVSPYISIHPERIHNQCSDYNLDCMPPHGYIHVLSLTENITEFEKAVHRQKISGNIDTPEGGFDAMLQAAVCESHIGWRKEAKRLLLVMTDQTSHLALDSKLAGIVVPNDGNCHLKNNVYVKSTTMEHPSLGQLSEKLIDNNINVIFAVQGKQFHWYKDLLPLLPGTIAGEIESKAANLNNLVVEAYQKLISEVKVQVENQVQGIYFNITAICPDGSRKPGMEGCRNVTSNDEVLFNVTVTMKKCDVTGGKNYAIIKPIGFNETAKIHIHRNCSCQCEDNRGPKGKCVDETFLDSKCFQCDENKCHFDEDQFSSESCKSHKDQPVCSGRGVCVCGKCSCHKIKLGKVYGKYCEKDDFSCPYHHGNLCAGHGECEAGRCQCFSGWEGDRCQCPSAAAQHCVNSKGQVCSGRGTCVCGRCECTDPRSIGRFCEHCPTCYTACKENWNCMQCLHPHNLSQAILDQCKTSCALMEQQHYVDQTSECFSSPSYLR

Row | Binder | Kd [1] | Kd [2]
1 | B1 | 0.7 nM | 0.3 nM
2 | B2 |  | 0.3 nM
3 | B3 |  | 0.2 nM
4 | B4 |  | 0.1 nM

From publication PMC10500007
